Assay results published in patent US20260242450A1.

Experiments:
[1] = target: HIV-1 envelope proteins of the panel of 12 global reference pseudovirus strains of HIV-1 ("global panel")
[2] = target: HIV-1 envelope proteins of the multiclade panel of 119 pseudoviruses
[3] = target: HIV-1 envelope proteins of the panel of 100 clade C HIV-1 pseudoviruses (Subtype C panel)
[4] = target: HIV-1 envelope proteins of the panel of 7 pseudoviruses selected from the "Resistant panel to CD4bs bNAbs"
[5] = target: HIV-1 envelope proteins of the panel of 9 pseudoviruses resistant against CD4bs bNAbs (constituents of the 119 multiclade and Subtype C panels)
[6] = target: HIV-1 envelope proteins of the panel of 185 pseudoviruses generated from virus sequences obtained from the Antibody Mediated Prevention (AMP) trials
[7] = target: HIV-1 envelope proteins of the panel of 8 pseudoviruses insensitive against neutralization by CD4bs bNAbs (constituents of the 119 multiclade panel)

Binder	geometric mean IC50, TZM-bl cell pseudovirus neutralization assay [1]	neutralizing activity, TZM-bl cell pseudovirus neutralization assay (breadth) [1]	other results
05_C07 (antibody, V domains shown) VH: HVQLWQSGAEVKKPGASVKISCSAWGFGTRSGYTFRDYRIHWVRQVPRQGFEWMGHLHPAYGAVNYARQFQGRIIMTREVSFDGSGGTVYMELRSLRSDDTATYYCVTHKLYDGEDASDLTWRLDPWGQGTRVTVSS VL: GVSLTQSPASLCASVGDRVTFTCQASQDITNAINWYQLRPGKTPKLMIHDGSTLRRGVPSRFAGSGFGTRFTFTIDNLQPEDLATYFCQHYEFFPPAGTQVDFN	< 0.05 µg/mL	100%	
01_B01 (antibody, V domains shown) VH: HVQLWQSGAEVKKPGASVKISCAAWGFGTTSGYSFRDYRIHWVRQVPGQGFQWMGHIQPRYGAVNYAHQFQGRITMTREVSFDASGGTAYMELRSLRSDDTATYYCVTHKLYDGEDASDLAWRLDPWGQGTRVTVSS VL: GVHLTQSPASLSASVGDRVTFTCQASQDITNAINWYQLRPGKTPKLMIHDGSTLRRGVPSRFAGGGFGTKFTFTIDNLQPEDLATYFCQHYEFFPPAGTQVELN	< 0.05 µg/mL	100%	
04_A06 (antibody, V domains shown) VH: SVRLDQSGTAVKKPGASVRVSCRAPDSFTVYRPRLSAYFIGEFNIHWLRQAPGQGLEWLGFVNIFRGAVKYSSRFQGRITITRDTSSETSYLDLGALKADDTATYYCAWDKNVDDNPWRLDSWGQGTLVIVSS VL: YIQVTQSPSSLSASIGDTITVACEVSQDVGWAVNWYHQRPGRPPYNLIYTAHNLAPGVASRFRGSRVGTYFTLTINNLLPEDVGTYYCQVFDSFAPGGTRVDLR	0.038 µg/mL	100%	geometric mean IC50, TZM-bl cell pseudovirus neutralization assay [2]: 0.036 µg/mL; neutralizing activity, TZM-bl cell pseudovirus neutralization assay (breadth) [2]: 99%; geometric mean IC50, TZM-bl cell pseudovirus neutralization assay [3]: 0.057 µg/mL; neutralizing activity, TZM-bl cell pseudovirus neutralization assay (breadth) [3]: 99%; IC50, TZM-bl cell pseudovirus neutralization assay [4]: 0.153 µg/mL; neutralizing activity, TZM-bl cell pseudovirus neutralization assay (breadth) [4]: 86%; neutralizing activity, TZM-bl cell pseudovirus neutralization assay (breadth) [5]: 100%; GeoMean IC50, TZM-bl cell pseudovirus neutralization assay [6]: 0.084 µg/mL; neutralizing activity, TZM-bl cell pseudovirus neutralization assay (breadth) [6]: < 98%
01_D03 (antibody, V domains shown) VH: HVQLWQSGAEVKKPGASVKISCSAWGFGTTSGYSFRDYRVHWVRHIAGQGFQWMGHMQPRYGAVNYARQFQGRITMTREVSFDASGGTAYMELRSLRSDDTAVYYCVTHKLYDGEDASDLTWRLDPWGQGTRVIVSS VL: GVHLTQSPASLSASVGDRVTFTCQASQDITNAINWYQLRPGKTPKLMIHDGSTLRRGVPSRFAGSGFGTKFTFTIDNLQPEDLATYFCQHYEFFPPVGTQVELN	0.021 µg/mL	100%	neutralizing activity, TZM-bl cell pseudovirus neutralization assay (breadth) [7]: 88%
04_B09 (antibody, V domains shown) VH: SVRLDQSGTAVKKPGASVRVSCRAPDSFTVYRPRLSAYFIGEFNIHWLRQAPGQGLEWLGFVNIFRGAVKYSSAFRGRITITRDTSLETSYLDLGALKPDDTATYFCAWDKNVDDNPWRLDSWGQGTLVVVSS VL: YIQVTQSPSSLSASVGDTITVACQVSQDVGWAVNWYHQRPGRPPYNLIYTTSNLAPGVASRFRGTRVATYFTLTINNLLPEDVGTYYCQVFESFAPGGTRVDLR	< 0.05 µg/mL	100%	
